Data published in the supplement of paper PMC10126150.
± gives the standard deviation of the averaged measurements.

System: ATP
Assay: switch fluorescence ratio, 500 uM ATP over buffer (Cy3 cluster intensity, sum of 5 cycles each) (fold (ratio)); higher = stronger signal-on switching upon ATP binding; sequences stand for … in TCGTCGGCAGCGTCAGATGTGTATAAGAGACAGTTTTTTTTTTTTTTTTTTTTTTTTT…TC
Details: aptamer strand: ATP DNA aptamer (quencher-CACCTGGGGGAGTATTGCGGAGGAAGG + anchor), 100 nM annealed; ATP concentration: 500 uM
Procedure, shortened: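 Between each of five buffer/ATP cycles, the flow-cell was stripped with NaOH and re-annealed. Each cycle imaged Cy3-labelled switching-strand clusters, annealed to 100 nM quencher-labelled ATP aptamer on a modified Illumina MiSeq flow-cell, first in selection buffer and then after 15 min with 500 uM ATP at 22 °C. The fluorescence ratio is summed target-cycle over summed buffer-cycle Cy3 intensity per cluster, averaged per switch-domain sequence, with clusters outside 100-1000 RFU excluded.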
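Also: ATP exposure 15 min at 22 °C before imaging.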

Work on GTGAGGGGGT yielded a switch fluorescence ratio of 1.06 ± 0.14.

ACTTCTGGCT showed a switch fluorescence ratio of 0.9717 ± 0.0054.

TATGGATAGG showed a switch fluorescence ratio of 0.996 ± 0.014.

In the case of ATTTGGTGCG, the switch fluorescence ratio is reported as 1.01 ± 0.036.

Sequence TGAGTGTAGA has a switch fluorescence ratio of 1.07 ± 0.023.

ACGGGGTGGT was tested, and the switch fluorescence ratio was 1.065 ± 0.0059.

With AGGGGGGACA the switch fluorescence ratio was 1.02 ± 0.084.

With TATCCGTGGG the switch fluorescence ratio was 0.973 ± 0.051.

TAAGGGGTAT gave a switch fluorescence ratio of 0.985 ± 0.032.

AATTTACTCT showed a switch fluorescence ratio of 1.07 ± 0.018.

For TTTTATCTTT, the switch fluorescence ratio was 1 ± 0.015.

CTGCTTGGGA gave a switch fluorescence ratio of 1.012 ± 0.0033.

For CTACACGCTG, the switch fluorescence ratio was 1.01 ± 0.1.

GAGGACGGGG was tested, and the switch fluorescence ratio was 1.01 ± 0.011.

In the case of GATTTTGGCG, the switch fluorescence ratio is reported as 1.01 ± 0.046.

Sequence GGACTCCCGG has a switch fluorescence ratio of 0.99 ± 0.011.

For TTTTATGAG, the switch fluorescence ratio was 0.999 ± 0.031.

Sequence TTGTGTGATT has a switch fluorescence ratio of 1.02 ± 0.038.

With TTGGAATTGT the switch fluorescence ratio was 1.005 ± 0.0075.

AAGAGGGTGG showed a switch fluorescence ratio of 0.997 ± 0.02.

In the case of GGGTATGCAT, the switch fluorescence ratio is reported as 0.973 ± 0.011.

For CGTTTAGGCT, the switch fluorescence ratio was 1.07 ± 0.14.

Sequence GGGTGACAGG has a switch fluorescence ratio of 0.978 ± 0.017.

Work on TAGGGCCAGC yielded a switch fluorescence ratio of 1.04 ± 0.033.

AAAGACAAAT showed a switch fluorescence ratio of 0.999 ± 0.042.

With GAAAGTATAA the switch fluorescence ratio was 0.998 ± 0.013.

In the case of GTTGGGGCTC, the switch fluorescence ratio is reported as 1.01 ± 0.04.

Sequence CGGGTTATAA has a switch fluorescence ratio of 1.04 ± 0.022.

For GATACGCCAC, the switch fluorescence ratio was 2.11 ± 0.06.

ACAGAAAGAC showed a switch fluorescence ratio of 1.15 ± 0.27.

GCGAGGGTGG gave a switch fluorescence ratio of 1.02 ± 0.018.

For TTTGGGGCGC, the switch fluorescence ratio was 1.01 ± 0.048.

AATGGAATCC showed a switch fluorescence ratio of 1.02 ± 0.035.

In the case of CGTAAGGGGG, the switch fluorescence ratio is reported as 1.02 ± 0.035.

Work on TTCCGAAGGT yielded a switch fluorescence ratio of 1.03 ± 0.03.

CGTGGGGGGA gave a switch fluorescence ratio of 1.03 ± 0.013.

Sequence ACTCCAGGAG has a switch fluorescence ratio of 1.06 ± 0.025.

Sequence TTATGGTCTG has a switch fluorescence ratio of 0.984 ± 0.038.

With GTGGGAACCT the switch fluorescence ratio was 1.45 ± 0.29.

In the case of TAGGAAGTCG, the switch fluorescence ratio is reported as 0.995 ± 0.047.

For TGCTCATTCG, the switch fluorescence ratio was 1.01 ± 0.024.

In the case of GAGGGTAGCG, the switch fluorescence ratio is reported as 0.96 ± 0.059.

Work on GTTGGTTTTC yielded a switch fluorescence ratio of 0.99 ± 0.036.

For CCGGGCGTA, the switch fluorescence ratio was 1.15 ± 0.083.

TATTATATGG was tested, and the switch fluorescence ratio was 1.03 ± 0.027.

For TGGGAAGGGC, the switch fluorescence ratio was 1.02 ± 0.03.

With AACCTGGTCG the switch fluorescence ratio was 1.069 ± 0.0046.

In the case of TAAGGGAATC, the switch fluorescence ratio is reported as 1.2 ± 0.31.

GTATTCTGTT gave a switch fluorescence ratio of 0.997 ± 0.013.

CTTATCGGCA gave a switch fluorescence ratio of 1.0825 ± 0.00095.

GCTTTATGTT showed a switch fluorescence ratio of 0.9938 ± 0.0015.

TCATTTGATA gave a switch fluorescence ratio of 1.03 ± 0.035.

TTGTTATGTA gave a switch fluorescence ratio of 0.982 ± 0.026.

For CAAATGTCAA, the switch fluorescence ratio was 0.987 ± 0.015.

In the case of AAATTGCGAC, the switch fluorescence ratio is reported as 1.03 ± 0.026.

GGGAGGAAGG gave a switch fluorescence ratio of 0.974 ± 0.028.

ATAAGGAGGG gave a switch fluorescence ratio of 1 ± 0.01.

With TTAGGGGTGG the switch fluorescence ratio was 0.996 ± 0.032.

For AATACAAGGC, the switch fluorescence ratio was 1.076 ± 0.006.

Work on GAGCATATTG yielded a switch fluorescence ratio of 1.03 ± 0.03.

For ATCATGGCGG, the switch fluorescence ratio was 0.99 ± 0.017.

For GGGAACGATC, the switch fluorescence ratio was 1.003 ± 0.0083.

GAAGGAGGTT was tested, and the switch fluorescence ratio was 1 ± 0.012.

TTAATTTCGG showed a switch fluorescence ratio of 0.991 ± 0.065.

Sequence AAAAATGGAG has a switch fluorescence ratio of 0.958 ± 0.017.

AGGGGAGGCA showed a switch fluorescence ratio of 1.02 ± 0.089.

With TGGTATGGGG the switch fluorescence ratio was 1.03 ± 0.087.

In the case of CGGAGTTAAG, the switch fluorescence ratio is reported as 1.07 ± 0.044.

TTTCTGGGTT showed a switch fluorescence ratio of 1.01 ± 0.023.

In the case of AATCGCTCTG, the switch fluorescence ratio is reported as 1.01 ± 0.027.

With TTTTTTCTGA the switch fluorescence ratio was 1.01 ± 0.028.

For AAGCGTGAGG, the switch fluorescence ratio was 1.04 ± 0.047.

GGGAATAATA gave a switch fluorescence ratio of 0.991 ± 0.023.

With TTGGGTATGT the switch fluorescence ratio was 1.01 ± 0.038.

Work on GGCGAAAACT yielded a switch fluorescence ratio of 1.073 ± 0.0052.

Work on GATGGCCATT yielded a switch fluorescence ratio of 1.02 ± 0.018.

Work on GCTGGAGGAA yielded a switch fluorescence ratio of 1.07 ± 0.018.

Sequence ACGGGCTGCT has a switch fluorescence ratio of 1 ± 0.018.

CGGTGGTGTG gave a switch fluorescence ratio of 0.963 ± 0.048.

ATATTTTTTG was tested, and the switch fluorescence ratio was 0.978 ± 0.024.

Work on CGAGTAGGGG yielded a switch fluorescence ratio of 1.01 ± 0.025.

With TGGATGTCGT the switch fluorescence ratio was 1.008 ± 0.0094.

GGGATGGTTA was tested, and the switch fluorescence ratio was 0.971 ± 0.056.

For AAGAGAGGGG, the switch fluorescence ratio was 1.02 ± 0.029.

For ACCATGTTTG, the switch fluorescence ratio was 1.012 ± 0.0072.

In the case of GTTGGGCGGA, the switch fluorescence ratio is reported as 0.993 ± 0.029.

Work on GGATATGGGG yielded a switch fluorescence ratio of 0.99 ± 0.012.

Work on TTTCCGGCGT yielded a switch fluorescence ratio of 1.03 ± 0.023.

Sequence TGGTTAAAGG has a switch fluorescence ratio of 0.978 ± 0.024.

CAATGCGGAG showed a switch fluorescence ratio of 1 ± 0.015.

Work on GGGTAGTTGG yielded a switch fluorescence ratio of 0.998 ± 0.082.

ATAGGTACGC gave a switch fluorescence ratio of 1.04 ± 0.036.

Sequence AGTAAAGTCT has a switch fluorescence ratio of 1.04 ± 0.035.

With AGCTGGGGTC the switch fluorescence ratio was 0.9851 ± 0.0063.

In the case of CCCTTAGGGA, the switch fluorescence ratio is reported as 1.02 ± 0.026.

GAATGGTCGC was tested, and the switch fluorescence ratio was 0.963 ± 0.026.

Work on AATACCGGCA yielded a switch fluorescence ratio of 1.04 ± 0.045.

TTCGGTATGT was tested, and the switch fluorescence ratio was 1.01 ± 0.027.

AAACGGACGC showed a switch fluorescence ratio of 1.2 ± 0.023.

Work on ATGTAGTAGT yielded a switch fluorescence ratio of 1 ± 0.034.

Work on AATCAAGTCT yielded a switch fluorescence ratio of 0.999 ± 0.011.

TGGGCCCGGC was tested, and the switch fluorescence ratio was 1.02 ± 0.053.

For CGTCAGTATG, the switch fluorescence ratio was 1 ± 0.033.

Work on TTTGTTTTAT yielded a switch fluorescence ratio of 1 ± 0.034.

Sequence AGAGAAGAGA has a switch fluorescence ratio of 0.998 ± 0.023.

For TGGAACAGGG, the switch fluorescence ratio was 1.03 ± 0.036.

TTAGGGAGTT showed a switch fluorescence ratio of 0.9784 ± 0.0062.

Work on TTTTTTCTTT yielded a switch fluorescence ratio of 1.01 ± 0.033.

TCGTCGTACG gave a switch fluorescence ratio of 1.02 ± 0.021.

Sequence ATGGTATAAC has a switch fluorescence ratio of 1.01 ± 0.015.

Work on CGGACACGTT yielded a switch fluorescence ratio of 0.983 ± 0.052.

ATTAGGTGGG was tested, and the switch fluorescence ratio was 1.05 ± 0.068.

In the case of AATTATACAT, the switch fluorescence ratio is reported as 1.04 ± 0.043.

With CGGAAACTTT the switch fluorescence ratio was 1.0088 ± 0.00067.

With CGTAATTTGA the switch fluorescence ratio was 1.02 ± 0.047.

GATTTAAAGG showed a switch fluorescence ratio of 1.04 ± 0.025.

Sequence AAATGTTTAA has a switch fluorescence ratio of 1.01 ± 0.019.

CCTATTTGTA was tested, and the switch fluorescence ratio was 0.974 ± 0.051.

Sequence TGACGTCGTA has a switch fluorescence ratio of 0.9689 ± 0.0094.

With AAGTTTTGAG the switch fluorescence ratio was 1.03 ± 0.019.

In the case of TTTTCATTCG, the switch fluorescence ratio is reported as 1 ± 0.033.

TTTTGGGAGT was tested, and the switch fluorescence ratio was 1 ± 0.026.

For CTTGGGATTT, the switch fluorescence ratio was 0.98 ± 0.013.

TCGGTGTGCT was tested, and the switch fluorescence ratio was 1.06 ± 0.064.

Sequence TAGATCGCTG has a switch fluorescence ratio of 0.931 ± 0.028.

GAGAGCAAAT gave a switch fluorescence ratio of 1.09 ± 0.048.

ACTTGGTAT gave a switch fluorescence ratio of 1 ± 0.07.

GGGAGTTGCT showed a switch fluorescence ratio of 0.986 ± 0.039.

TGATTATAGA was tested, and the switch fluorescence ratio was 0.983 ± 0.03.

Work on CGCTCTAAAA yielded a switch fluorescence ratio of 1.01 ± 0.011.

Work on CGGACGAGAG yielded a switch fluorescence ratio of 0.998 ± 0.022.

Sequence TGCCTTGAGA has a switch fluorescence ratio of 1 ± 0.015.

GGGTTTGAT was tested, and the switch fluorescence ratio was 1.03 ± 0.025.

With CAGTTGATGC the switch fluorescence ratio was 1.01 ± 0.096.

GGGGGACGGG gave a switch fluorescence ratio of 1.02 ± 0.029.

For ATAAAGAGAG, the switch fluorescence ratio was 1.01 ± 0.023.

For TCAATAGGTT, the switch fluorescence ratio was 1.01 ± 0.024.

AATGATAGTT gave a switch fluorescence ratio of 0.986 ± 0.02.

Sequence GAGGAGGGGC has a switch fluorescence ratio of 1.02 ± 0.054.

Sequence AGACGCGGTG has a switch fluorescence ratio of 1.044 ± 0.0038.

Work on AAGAGATTTT yielded a switch fluorescence ratio of 0.986 ± 0.012.

CCTGGGGTGT gave a switch fluorescence ratio of 1.34 ± 0.28.

For TTAGCATGTT, the switch fluorescence ratio was 1 ± 0.022.

CGTCGAATAT showed a switch fluorescence ratio of 1.016 ± 0.0016.

Sequence GACTAATAGG has a switch fluorescence ratio of 0.992 ± 0.012.

CAAATGTTTG showed a switch fluorescence ratio of 0.998 ± 0.02.

With GGGCCTGGTG the switch fluorescence ratio was 1.42 ± 0.013.

TGAAGTCGCT gave a switch fluorescence ratio of 1.02 ± 0.0048.

In the case of TTATGATCAG, the switch fluorescence ratio is reported as 0.9912 ± 0.0038.

Sequence TCGTATCGGG has a switch fluorescence ratio of 1 ± 0.034.

For ACAGCAGTGT, the switch fluorescence ratio was 1.03 ± 0.035.

Sequence TTATTTTTAT has a switch fluorescence ratio of 0.998 ± 0.018.

Work on TAATCTTTTT yielded a switch fluorescence ratio of 1.01 ± 0.021.

With GTTGGTTAAT the switch fluorescence ratio was 0.966 ± 0.054.

In the case of ATGAGGAGTT, the switch fluorescence ratio is reported as 0.996 ± 0.025.

For AGGGCGACAG, the switch fluorescence ratio was 1.01 ± 0.012.

TACGTGCTTG gave a switch fluorescence ratio of 0.989 ± 0.03.
